Paper PMC8891041

Target: human parathyroid hormone type 1 receptor (hPTHR) (human) (UniProt Q03431)
Assay: radioligand binding

Chain of UniProt Q03431 (Q03431 27-593): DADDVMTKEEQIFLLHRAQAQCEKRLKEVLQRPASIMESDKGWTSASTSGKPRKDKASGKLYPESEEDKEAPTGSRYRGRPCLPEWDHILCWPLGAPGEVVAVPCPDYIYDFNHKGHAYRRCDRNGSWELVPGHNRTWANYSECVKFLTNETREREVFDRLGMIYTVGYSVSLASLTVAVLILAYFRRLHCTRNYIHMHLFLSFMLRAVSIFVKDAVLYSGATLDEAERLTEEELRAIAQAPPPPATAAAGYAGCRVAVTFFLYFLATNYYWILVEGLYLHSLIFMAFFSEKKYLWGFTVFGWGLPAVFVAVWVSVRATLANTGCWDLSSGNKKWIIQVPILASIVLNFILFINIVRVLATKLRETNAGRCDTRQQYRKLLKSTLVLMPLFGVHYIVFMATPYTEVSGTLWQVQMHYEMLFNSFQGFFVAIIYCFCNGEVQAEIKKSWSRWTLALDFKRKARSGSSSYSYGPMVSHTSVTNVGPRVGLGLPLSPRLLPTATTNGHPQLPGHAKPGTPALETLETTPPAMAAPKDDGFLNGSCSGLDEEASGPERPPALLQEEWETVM

pKi | Substance
10.8 | M-PTH(1-15) (peptide)
8.26 | PTH(1-34) (peptide)
